The record followed here is patent publication US20230322953A1 (HARBOUR BIOMED SHANGHAI, published 2023).

First the molecules themselves.
T1: human BCMA (human, UniProt Q02223 1-184)
T1 construct: whole, on cells; also called hBCMA; TNFRSF17
T1 sequence (looked up): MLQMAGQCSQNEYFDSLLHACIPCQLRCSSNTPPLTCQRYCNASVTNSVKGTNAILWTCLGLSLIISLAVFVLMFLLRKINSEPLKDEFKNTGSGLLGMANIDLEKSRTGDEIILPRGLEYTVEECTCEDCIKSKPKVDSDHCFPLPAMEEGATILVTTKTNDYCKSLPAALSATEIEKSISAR

B1: PR003876 (bispecific antibody, human IgG1, lambda, L234A L235A)
light: QAVVTQEPSLTVSPGGTVTLTCRSSTGAVTTSNYANWVQQKPGQAPRGLIGGTNKRAPWTPARFSGSLLGDKAALTLLGAQPEDEAEYFCALWYSNLWVFGGGTKLTVLGQPKAAPSVTLFPPSSEELQANKATLVCLISDFYPGAVTVAWKADSSPVKAGVETTTPSKQSNNKYAASSYLSLTPEQWKSHRSYSCQVTHEGSTVEKTVAPTECS
heavy: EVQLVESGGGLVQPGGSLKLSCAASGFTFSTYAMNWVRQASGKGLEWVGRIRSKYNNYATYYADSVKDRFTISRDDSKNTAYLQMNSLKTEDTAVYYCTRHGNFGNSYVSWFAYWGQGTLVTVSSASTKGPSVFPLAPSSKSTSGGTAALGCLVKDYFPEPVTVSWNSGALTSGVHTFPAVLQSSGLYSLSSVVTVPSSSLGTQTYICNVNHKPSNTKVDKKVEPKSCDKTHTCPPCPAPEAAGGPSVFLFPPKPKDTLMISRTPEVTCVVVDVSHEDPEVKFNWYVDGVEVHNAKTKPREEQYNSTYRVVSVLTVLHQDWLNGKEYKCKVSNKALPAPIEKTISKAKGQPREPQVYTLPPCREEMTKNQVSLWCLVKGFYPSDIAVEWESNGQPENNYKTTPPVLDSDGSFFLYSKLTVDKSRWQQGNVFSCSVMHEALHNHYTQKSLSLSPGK
chain: EVQLVETGGGLIQPGGSLRLSCAASGFTVSDSYMTWVRQAPGKGLEWVSVIFSGGKTYYSDSVKGRFTISRDNAKNTLYLQMNSLRAEDTALYYCARRNYDQTIGTDVFDIWGQGTMVTVSSASEPKSSDKTHTCPPCPAPEAAGGPSVFLFPPKPKDTLMISRTPEVTCVVVDVSHEDPEVKFNWYVDGVEVHNAKTKPREEQYNSTYRVVSVLTVLHQDWLNGKEYKCKVSNKALPAPIEKTISKAKGQPREPQVCTLPPSREEMTKNQVSLSCAVKGFYPSDIAVEWESNGQPENNYKTTPPVLDSDGSFFLVSKLTVDKSRWQQGNVFSCSVMHEALHNHYTQKSLSLSPGK
notes: BCMAxCD3, Fab-Fc-VH (structure 11); CD3 Fab of PR003886, BCMA VH of PR004571; IgG1 knob/hole, LALA
B2: PR002299 (bispecific antibody, human IgG1, lambda, L234A L235A)
light: QAVVTQEPSLTVSPGGTVTLTCRSSTGAVTTSNYANWVQQKPGQAPRGLIGGTNKRAPWTPARFSGSLLGDKAALTLLGAQPEDEAEYFCALWYSNLWVFGGGTKLTVLGQPKAAPSVTLFPPSSEELQANKATLVCLISDFYPGAVTVAWKADSSPVKAGVETTTPSKQSNNKYAASSYLSLTPEQWKSHRSYSCQVTHEGSTVEKTVAPTECS
heavy: EVQLLESGGGLVQPGGSLRLSCAASGFTFSTYAMNWVRQAPGKGLEWVSRIRSKYNNYATYYADSVKDRFTISRDDSKSTLYLQMNSLRAEDTAVYYCVRHGNFGNSYVSWFAYWGQGTLVTVSSASTKGPSVFPLAPSSKSTSGGTAALGCLVKDYFPEPVTVSWNSGALTSGVHTFPAVLQSSGLYSLSSVVTVPSSSLGTQTYICNVNHKPSNTKVDKKVEPKSCDKTHTCPPCPAPEAAGGPSVFLFPPKPKDTLMISRTPEVTCVVVDVSHEDPEVKFNWYVDGVEVHNAKTKPREEQYNSTYRVVSVLTVLHQDWLNGKEYKCKVSNKALGAPIEKTISKAKGQPREPQVYTLPPCREEMTKNQVSLWCLVKGFYPSDIAVEWESNGQPENNYKTTPPVLDSDGSFFLYSKLTVDKSRWQQGNVFSCSVMHEALHNHYTQKSLSLSPGK
chain: EVQLLESGGGLVQPGGSLRLSCAASGFTFSSYAMIWVRQAPGKGLEWVSGISESGGSTYYADSVKGRFTISRDNSKNTLYLQMNSLRAEDTAVYFCVKDLDDILTGYYKDYWGQGTLVTVSSRTGGGGSKLEVQLLESGGGLVQPGGSLRLSCAASGFTFSSYAMIWVRQAPGKGLEWVSGISESGGSTYYADSVKGRFTISRDNSKNTLYLQMNSLRAEDTAVYFCVKDLDDILTGYYKDYWGQGTLVTVSSASEPKSSDKTHTCPPCPAPEAAGGPSVFLFPPKPKDTLMISRTPEVTCVVVDVSHEDPEVKFNWYVDGVEVHNAKTKPREEQYNSTYRVVSVLTVLHQDWLNGKEYKCKVSNKALGAPIEKTISKAKGQPREPQVCTLPPSREEMTKNQVSLSCAVKGFYPSDIAVEWESNGQPENNYKTTPPVLDSDGSFFLVSKLTVDKSRWQQGNVFSCSVMHEALHNHYTQKSLSLSPGK
notes: BCMAxCD3, Fab-Fc-VH(2) (structure 14); CD3 Fab of PR001848, two BCMA VH of PR000940, linker RT-GS_5-KL; IgG1 knob/hole, AAG
B3: PR003880 (bispecific antibody, human IgG1, lambda, L234A L235A)
light: QAVVTQEPSLTVSPGGTVTLTCRSSTGAVTTSNYANWVQQKPGQAPRGLIGGTNKRAPWTPARFSGSLLGDKAALTLLGAQPEDEAEYFCALWYSNLWVFGGGTKLTVLGQPKAAPSVTLFPPSSEELQANKATLVCLISDFYPGAVTVAWKADSSPVKAGVETTTPSKQSNNKYAASSYLSLTPEQWKSHRSYSCQVTHEGSTVEKTVAPTECS
heavy: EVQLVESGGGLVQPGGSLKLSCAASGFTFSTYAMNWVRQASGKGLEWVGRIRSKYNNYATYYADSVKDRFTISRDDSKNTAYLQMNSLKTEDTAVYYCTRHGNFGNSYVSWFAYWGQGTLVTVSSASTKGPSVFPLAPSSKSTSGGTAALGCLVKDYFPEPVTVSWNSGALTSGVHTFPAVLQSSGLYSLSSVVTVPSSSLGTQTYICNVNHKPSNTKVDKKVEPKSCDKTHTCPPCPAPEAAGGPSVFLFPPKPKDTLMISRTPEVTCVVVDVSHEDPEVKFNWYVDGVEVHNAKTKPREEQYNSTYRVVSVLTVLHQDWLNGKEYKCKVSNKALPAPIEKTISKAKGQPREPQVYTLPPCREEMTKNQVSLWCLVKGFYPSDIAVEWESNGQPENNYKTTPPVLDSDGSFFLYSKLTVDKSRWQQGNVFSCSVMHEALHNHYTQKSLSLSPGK
chain: EVQLVETGGGLIQPGGSLRLSCAASGFTVSDAYMTWVRQAPGKGLEWVSVIFSGGNTYVSDSVKGRFTISRDNAKNTLYLQMNSLRAEDTALYYCARRNYDQTRGTDVFDIWGQGTMVTVSSASEPKSSDKTHTCPPCPAPEAAGGPSVFLFPPKPKDTLMISRTPEVTCVVVDVSHEDPEVKFNWYVDGVEVHNAKTKPREEQYNSTYRVVSVLTVLHQDWLNGKEYKCKVSNKALPAPIEKTISKAKGQPREPQVCTLPPSREEMTKNQVSLSCAVKGFYPSDIAVEWESNGQPENNYKTTPPVLDSDGSFFLVSKLTVDKSRWQQGNVFSCSVMHEALHNHYTQKSLSLSPGK
notes: BCMAxCD3, Fab-Fc-VH (structure 11); CD3 Fab of PR003886, BCMA VH of PR004560; IgG1 knob/hole, LALA
B4: PR003882 (bispecific antibody, human IgG1, lambda, L234A L235A)
light: QAVVTQEPSLTVSPGGTVTLTCRSSTGAVTTSNYANWVQQKPGQAPRGLIGGTNKRAPWTPARFSGSLLGDKAALTLLGAQPEDEAEYFCALWYSNLWVFGGGTKLTVLGQPKAAPSVTLFPPSSEELQANKATLVCLISDFYPGAVTVAWKADSSPVKAGVETTTPSKQSNNKYAASSYLSLTPEQWKSHRSYSCQVTHEGSTVEKTVAPTECS
heavy: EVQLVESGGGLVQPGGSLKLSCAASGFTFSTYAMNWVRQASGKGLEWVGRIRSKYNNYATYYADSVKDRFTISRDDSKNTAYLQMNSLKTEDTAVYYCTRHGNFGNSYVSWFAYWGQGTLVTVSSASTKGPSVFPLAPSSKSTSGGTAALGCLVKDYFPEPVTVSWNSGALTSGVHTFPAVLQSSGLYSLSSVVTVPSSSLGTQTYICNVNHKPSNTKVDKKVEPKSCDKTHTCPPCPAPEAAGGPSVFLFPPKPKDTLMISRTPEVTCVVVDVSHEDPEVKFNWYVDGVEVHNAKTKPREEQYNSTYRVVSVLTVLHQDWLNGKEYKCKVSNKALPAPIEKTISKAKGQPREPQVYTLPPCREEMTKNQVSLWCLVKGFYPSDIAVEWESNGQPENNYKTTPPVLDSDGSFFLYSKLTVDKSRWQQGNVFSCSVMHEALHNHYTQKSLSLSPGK
chain: EVQLVETGGGLIQPGGSLRLSCAASGFTVSDSYMTWVRQAPGKGLEWVSVIFSGGKTYYSDSVKGRFTISRDNAKNTLYLQMNSLRAEDTALYYCARRNYDQTLGTDVFDIWGQGTMVTVSSASEPKSSDKTHTCPPCPAPEAAGGPSVFLFPPKPKDTLMISRTPEVTCVVVDVSHEDPEVKFNWYVDGVEVHNAKTKPREEQYNSTYRVVSVLTVLHQDWLNGKEYKCKVSNKALPAPIEKTISKAKGQPREPQVCTLPPSREEMTKNQVSLSCAVKGFYPSDIAVEWESNGQPENNYKTTPPVLDSDGSFFLVSKLTVDKSRWQQGNVFSCSVMHEALHNHYTQKSLSLSPGK
notes: BCMAxCD3, Fab-Fc-VH (structure 11); CD3 Fab of PR003886, BCMA VH of PR004562; IgG1 knob/hole, LALA
B5: PR003879 (bispecific antibody, human IgG1, lambda, L234A L235A)
light: QAVVTQEPSLTVSPGGTVTLTCRSSTGAVTTSNYANWVQQKPGQAPRGLIGGTNKRAPWTPARFSGSLLGDKAALTLLGAQPEDEAEYFCALWYSNLWVFGGGTKLTVLGQPKAAPSVTLFPPSSEELQANKATLVCLISDFYPGAVTVAWKADSSPVKAGVETTTPSKQSNNKYAASSYLSLTPEQWKSHRSYSCQVTHEGSTVEKTVAPTECS
heavy: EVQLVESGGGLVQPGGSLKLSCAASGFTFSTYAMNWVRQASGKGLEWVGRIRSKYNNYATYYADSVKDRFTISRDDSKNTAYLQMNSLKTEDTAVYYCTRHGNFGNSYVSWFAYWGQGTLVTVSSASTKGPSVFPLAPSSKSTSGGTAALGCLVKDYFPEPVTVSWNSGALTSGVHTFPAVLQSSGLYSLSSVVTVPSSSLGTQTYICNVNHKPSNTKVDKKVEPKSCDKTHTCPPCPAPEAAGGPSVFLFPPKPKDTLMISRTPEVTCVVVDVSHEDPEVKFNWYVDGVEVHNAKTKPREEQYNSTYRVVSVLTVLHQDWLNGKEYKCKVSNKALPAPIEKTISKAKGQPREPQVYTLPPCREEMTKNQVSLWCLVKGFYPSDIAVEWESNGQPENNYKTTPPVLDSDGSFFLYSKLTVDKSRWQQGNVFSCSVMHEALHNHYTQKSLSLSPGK
chain: EVQLVETGGGLIQPGGSLRLSCAASGFTVSDAYMTWVRQAPGKGLEWVSVIFSGGRTYYSDSVKGRFTISRDNAKNTLYLQMNSLRAEDTALYYCARRNYDQTRGTDVFDIWGQGTMVTVSSASEPKSSDKTHTCPPCPAPEAAGGPSVFLFPPKPKDTLMISRTPEVTCVVVDVSHEDPEVKFNWYVDGVEVHNAKTKPREEQYNSTYRVVSVLTVLHQDWLNGKEYKCKVSNKALPAPIEKTISKAKGQPREPQVCTLPPSREEMTKNQVSLSCAVKGFYPSDIAVEWESNGQPENNYKTTPPVLDSDGSFFLVSKLTVDKSRWQQGNVFSCSVMHEALHNHYTQKSLSLSPGK
notes: BCMAxCD3, Fab-Fc-VH (structure 11); CD3 Fab of PR003886, BCMA VH of PR004574; IgG1 knob/hole, LALA

The experiment deals with T1, human BCMA. Kind of experiment: FACS on NCI-H929 cells.
Protocol: This example is intended to investigate the binding activity of anti-BCMA HCAb antibodies to human and cynomolgus monkey BCMAs. […] Specifically, HEK293T/hBCMA cells and HEK293T/cyno BCMA cells were digested and resuspended in a DMEM complete medium. In addition, NCI-H929 cell suspension was collected. The density of each of the three cells was adjusted to 1×10⁶ cells/mL. […] The cells were incubated at 4° C. for 1 h away from light. Thereafter, the cells in each well were rinsed twice with 100 μL of pre-cooled PBS, and centrifuged at 500 g at 4° C. for 5 min, and then the supernatant was discarded. […] The cells in each well were rinsed twice with 100 μL of pre-cooled PBS, and centrifuged at 500 g at 4° C. for 5 min, and then the supernatant was discarded. Finally, the cells in each well were resuspended in 200 μL of pre-cooled PBS. Fluorescence signal values were read using a BD FACS CANTOII flow cytometer or an ACEA NovoCyte flow cytometer, and the data were processed and analyzed using FlowJo v10 (FlowJo, LLC) software. The data were processed and analyzed by plotting using GraphPad Prism 8 software, and binding curves of the antibodies to target cells, EC₅₀ values and other parameters were obtained through four-parameter nonlinear fitting.
On to B1, for which a half-maximal response (EC50) required 2.3 nM and the “Maximum MFI” value was found to be 10900.
For B2, the “Maximum MFI” value came to 32800.
In the case of B3, it took 5.6 nM to reach a half-maximal effect (EC50) and the “Maximum MFI” value turned out to be 8660.
The matching figures for B4: 1.8 nM and 11100.
Turning to B5, the response was half-maximal at 2.1 nM (EC50) and the “Maximum MFI” value was 10800.

The EC50 is the concentration needed to bring the measured effect to its halfway point.
